Laboratory results reported in US8440430, “Modified dicer polypeptide and methods of use thereof” (The Regents of the University of California).

T1: hWalker human Dicer (K70A) (Homo sapiens, UniProt Q9UPY3 SEQ:1-1922)
T1 chain: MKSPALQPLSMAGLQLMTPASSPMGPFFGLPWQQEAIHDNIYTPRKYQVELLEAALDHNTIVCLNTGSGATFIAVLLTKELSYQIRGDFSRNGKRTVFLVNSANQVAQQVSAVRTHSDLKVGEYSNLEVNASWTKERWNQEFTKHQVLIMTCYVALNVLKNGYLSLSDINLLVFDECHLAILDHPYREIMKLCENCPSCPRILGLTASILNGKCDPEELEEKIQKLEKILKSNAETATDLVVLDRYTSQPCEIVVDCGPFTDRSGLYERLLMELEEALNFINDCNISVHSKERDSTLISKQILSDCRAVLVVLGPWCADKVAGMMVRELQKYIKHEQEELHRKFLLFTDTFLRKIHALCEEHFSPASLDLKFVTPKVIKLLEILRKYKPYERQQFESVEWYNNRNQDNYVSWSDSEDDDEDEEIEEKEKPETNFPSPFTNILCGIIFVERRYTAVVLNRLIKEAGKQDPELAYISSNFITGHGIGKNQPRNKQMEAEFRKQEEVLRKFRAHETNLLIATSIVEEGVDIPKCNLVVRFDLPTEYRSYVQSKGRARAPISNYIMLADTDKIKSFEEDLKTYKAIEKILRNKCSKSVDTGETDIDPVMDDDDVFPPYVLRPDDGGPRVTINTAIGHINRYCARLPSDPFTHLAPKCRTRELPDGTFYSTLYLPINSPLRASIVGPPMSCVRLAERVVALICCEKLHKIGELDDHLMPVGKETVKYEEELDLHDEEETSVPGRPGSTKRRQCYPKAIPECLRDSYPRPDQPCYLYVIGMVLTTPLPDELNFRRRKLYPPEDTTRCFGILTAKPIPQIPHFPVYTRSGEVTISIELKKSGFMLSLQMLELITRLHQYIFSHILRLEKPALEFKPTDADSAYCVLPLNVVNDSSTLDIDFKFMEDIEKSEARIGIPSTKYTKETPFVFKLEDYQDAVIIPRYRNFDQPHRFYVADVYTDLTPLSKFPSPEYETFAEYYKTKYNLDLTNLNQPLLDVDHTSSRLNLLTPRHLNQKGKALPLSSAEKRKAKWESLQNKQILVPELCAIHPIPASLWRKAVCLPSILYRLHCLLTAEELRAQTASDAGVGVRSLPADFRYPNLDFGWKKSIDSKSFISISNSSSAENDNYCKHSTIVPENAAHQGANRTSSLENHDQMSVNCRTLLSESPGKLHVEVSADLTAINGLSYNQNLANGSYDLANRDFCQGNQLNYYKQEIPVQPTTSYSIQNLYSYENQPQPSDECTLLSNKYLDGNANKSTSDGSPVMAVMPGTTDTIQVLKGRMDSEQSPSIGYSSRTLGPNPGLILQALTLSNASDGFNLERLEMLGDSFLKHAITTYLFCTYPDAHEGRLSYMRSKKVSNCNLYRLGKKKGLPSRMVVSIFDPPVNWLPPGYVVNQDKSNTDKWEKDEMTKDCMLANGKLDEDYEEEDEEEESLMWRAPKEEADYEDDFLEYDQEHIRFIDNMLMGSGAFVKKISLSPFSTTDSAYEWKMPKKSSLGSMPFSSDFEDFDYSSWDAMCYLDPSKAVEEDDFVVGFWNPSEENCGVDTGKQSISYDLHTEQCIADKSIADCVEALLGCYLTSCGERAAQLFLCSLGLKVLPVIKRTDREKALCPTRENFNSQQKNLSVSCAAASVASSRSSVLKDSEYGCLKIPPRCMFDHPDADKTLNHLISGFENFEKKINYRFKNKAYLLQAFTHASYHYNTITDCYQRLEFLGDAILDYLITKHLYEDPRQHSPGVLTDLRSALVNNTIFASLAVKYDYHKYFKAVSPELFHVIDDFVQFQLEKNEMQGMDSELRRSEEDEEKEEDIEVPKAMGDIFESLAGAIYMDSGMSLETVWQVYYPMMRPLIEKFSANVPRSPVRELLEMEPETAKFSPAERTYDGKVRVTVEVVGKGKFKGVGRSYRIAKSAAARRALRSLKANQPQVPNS


Legend:
[1] = molecular target: T1, hWalker human Dicer (K70A); assay: filter; within three-fold of full-length; 5 mM EDTA; exact Kd only in figure; conditions: tags: N-terminal His6 removed by site-specific protease, baculovirus/Sf9
Method: (§1) After dried, the bound (on Protran) or free (on Nytran) RNAs were detected and quantified with Phosphoimager (GE Healthcare). Percentage of bound RNAs was calculated by 100 multiplied by the ratio of radioactivity (volumes) detected on the Protran membrane over the total input volumes (radioactivity). The bound RNAs (%) (Y-axle) were plotted against protein concentrations (X-axle). K_d was determined by global fitting to the equation of kobsd = (kmax ×[Dicer])(K_{1/2} + [Dicer])^-1, here $kobsd$ is the observed rate constant at a particular protein concentration, $kmax$ is the maximal rate constant with saturating protein, and K_{1/2} (or K_d) is the protein concentration that provides half the maximal rate. Curve fitting was conducted with KleidaGraph (Synery Software).
(§2) RNA. […] These values are similar to those measured previously (Provost et al, 2002; Vermeulen et al, 2005). […] The protein lacking both the DExD/H-box domain and the dsRBD (2DD) bound ~3-4 fold more weakly to either substrate relative to full-length Dicer (FIG. 3A-C). It is possible that this severely truncated protein is generally destabilized, or that the DExD/H-box domain plays a small but measurable role in substrate binding.

[2] = molecular target: ΔDUF human Dicer (lacks DUF283) (Homo sapiens, UniProt Q9UPY3 SEQ:1-1922, del630-709); assay: as above; conditions: tags: N-terminal His6 removed by site-specific protease, baculovirus/Sf9
Method: as §1, §2

[3] = label: 5'-32P on one strand, perfect duplex with 2-nt 3' overhangs on both ends

| Binder | Kd relative to full-length Dicer (fold) [1, 3] | Kd relative to full-length Dicer (fold) [2, 3] | Kd relative to full-length Dicer (fold) ([1]; label: 5'-32P, hairpin) | Kd relative to full-length Dicer (fold) ([2]; label: 5'-32P, hairpin) |
| --- | --- | --- | --- | --- |
| 37ab duplex RNA (dsRNA) RNA 1: UGAGGUAGUAGGUUGUAUAGUUUGAAAGUUCACGAUU RNA 2: UCGUGAACUUUCAAACUAUACAACCUACUACCUCAUU | ≤ 3 fold of full-length Kd (75 nM) | ≤ 3 fold of full-length Kd (75 nM) | – | – |
| pre-hlet-7 hairpin RNA (ssRNA) RNA: UGAGGUAGUAGGUUGUAUAGUUUUAGGGUCACACCCACCACUGGGAGAUAACUAUACAAUCUACUGUCUUACC | – | – | ≤ 3 fold of full-length Kd (30 nM) | ≤ 3 fold of full-length Kd (30 nM) |
